Data published in the supplement of paper PMC9112550, “Optimization of the antimicrobial peptide Bac7 by deep mutational scanning” (BMC Biology, 2022).

Test system: Escherichia coli TOP10
Assay: shrunken log2 fold change of peptide-encoding DNA abundance (4.5 h post-induction vs induction); higher = less antimicrobial activity (less host growth inhibition)
Settings: time post-induction: 4.5 h; library: site-saturation at positions 5, 18, 19, 20
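Note: peptides expressed intracellularly from a pBAD plasmid library in pooled LB shake-flask culture, induced with 0.3% L-arabinose, DNA abundance read by NGS, three biological replicates, DESeq2 with apeglm shrinkage.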

| Sequence | shrunken log2 fold change |
| --- | --- |
| RRIRERPPRLPRPRPRPLQHPRP | 0.159 |
| RRIRERPPRLPRPRPRPLRSPRP | 0.474 |
| RRIRERPPRLPRPRPRPLSEPRP | 0.0884 |
| RRIRERPPRLPRPRPRPLSLPRP | -0.371 |
| RRIRERPPRLPRPRPRPLSTPRP | -0.48 |
| RRIRERPPRLPRPRPRPLSWPRP | 0.04 |
| RRIRERPPRLPRPRPRPLTHPRP | -0.413 |
| RRIRERPPRLPRPRPRPLWQPRP | 0.113 |
| RRIRERPPRLPRPRPRPMCDPRP | -0.212 |
| RRIRERPPRLPRPRPRPMCRPRP | 0.03 |
| RRIRERPPRLPRPRPRPMEHPRP | 0.0106 |
| RRIRERPPRLPRPRPRPMEKPRP | -0.0775 |
| RRIRERPPRLPRPRPRPMFIPRP | -0.256 |
| RRIRERPPRLPRPRPRPMFKPRP | -0.204 |
| RRIRERPPRLPRPRPRPMGRPRP | 0.0998 |
| RRIRERPPRLPRPRPRPMKGPRP | -0.0658 |
| RRIRERPPRLPRPRPRPMLDPRP | 0.0349 |
| RRIRERPPRLPRPRPRPMLFPRP | -0.0835 |
| RRIRERPPRLPRPRPRPMLMPRP | -0.142 |
| RRIRERPPRLPRPRPRPMPNPRP | -0.172 |
| RRIRERPPRLPRPRPRPMQIPRP | -0.0552 |
| RRIRERPPRLPRPRPRPMRMPRP | -0.0542 |
| RRIRERPPRLPRPRPRPMSHPRP | -0.741 |
| RRIRERPPRLPRPRPRPMSKPRP | -0.439 |
| RRIRERPPRLPRPRPRPMTWPRP | 0.0575 |

| Sequence | shrunken log2 fold change |
| --- | --- |
| RRIRERPPRLPRPRPRPMVFPRP | 0.0276 |
| RRIRERPPRLPRPRPRPMWHPRP | 0.0749 |
| RRIRERPPRLPRPRPRPMWNPRP | -0.0278 |
| RRIRERPPRLPRPRPRPMWWPRP | -0.298 |
| RRIRERPPRLPRPRPRPMYNPRP | -0.301 |
| RRIRERPPRLPRPRPRPNADPRP | -0.0389 |
| RRIRERPPRLPRPRPRPNETPRP | -0.0321 |
| RRIRERPPRLPRPRPRPNFEPRP | -0.188 |
| RRIRERPPRLPRPRPRPNGNPRP | -0.104 |
| RRIRERPPRLPRPRPRPNHTPRP | -0.58 |
| RRIRERPPRLPRPRPRPNIPPRP | -0.396 |
| RRIRERPPRLPRPRPRPNKRPRP | -0.164 |
| RRIRERPPRLPRPRPRPNLAPRP | -0.194 |
| RRIRERPPRLPRPRPRPNLFPRP | 0.0891 |
| RRIRERPPRLPRPRPRPNLYPRP | -0.022 |
| RRIRERPPRLPRPRPRPNQNPRP | -0.188 |
| RRIRERPPRLPRPRPRPNSDPRP | -0.142 |
| RRIRERPPRLPRPRPRPNSSPRP | -0.494 |
| RRIRERPPRLPRPRPRPNTPPRP | 0.0861 |
| RRIRERPPRLPRPRPRPNVMPRP | -0.403 |
| RRIRERPPRLPRPRPRPNWEPRP | 0.0232 |
| RRIRERPPRLPRPRPRPNWRPRP | 0.194 |
| RRIRERPPRLPRPRPRPNWVPRP | -0.0244 |
| RRIRERPPRLPRPRPRPPANPRP | 0.0983 |
| RRIRERPPRLPRPRPRPPCFPRP | -0.0819 |

| Sequence | shrunken log2 fold change |
| --- | --- |
| RRIRERPPRLPRPRPRPPCTPRP | 0.0136 |
| RRIRERPPRLPRPRPRPPDDPRP | 0.103 |
| RRIRERPPRLPRPRPRPPDGPRP | 0.0068 |
| RRIRERPPRLPRPRPRPPDKPRP | 0.0845 |
| RRIRERPPRLPRPRPRPPDLPRP | 0.16 |
| RRIRERPPRLPRPRPRPPFKPRP | -0.0871 |
| RRIRERPPRLPRPRPRPPGMPRP | 0.0408 |
| RRIRERPPRLPRPRPRPPGWPRP | 0.467 |
| RRIRERPPRLPRPRPRPPIEPRP | -0.227 |
| RRIRERPPRLPRPRPRPPKSPRP | 0.21 |
| RRIRERPPRLPRPRPRPPMFPRP | -0.203 |
| RRIRERPPRLPRPRPRPPMLPRP | 1.29 |
| RRIRERPPRLPRPRPRPPMYPRP | -0.458 |
| RRIRERPPRLPRPRPRPPNEPRP | 0.28 |
| RRIRERPPRLPRPRPRPPPMPRP | 0.271 |
| RRIRERPPRLPRPRPRPPQAPRP | 0.154 |
| RRIRERPPRLPRPRPRPPQNPRP | 0.232 |
| RRIRERPPRLPRPRPRPPQPPRP | 0.307 |
| RRIRERPPRLPRPRPRPPRQPRP | 0.26 |
| RRIRERPPRLPRPRPRPPRVPRP | 0.342 |
| RRIRERPPRLPRPRPRPPTHPRP | 0.0517 |
| RRIRERPPRLPRPRPRPPVRPRP | 0.538 |
| RRIRERPPRLPRPRPRPPYRPRP | 0.0947 |
| RRIRERPPRLPRPRPRPQAMPRP | 0.00616 |
| RRIRERPPRLPRPRPRPQCAPRP | 0.0306 |
